US20220073922

Experiments:
[1] = target: T1, Angiopoietin-2 (Ang2) (Homo sapiens) (UniProt O15123); test: flow; details: 2'-F all nucleotides
T1 sequence: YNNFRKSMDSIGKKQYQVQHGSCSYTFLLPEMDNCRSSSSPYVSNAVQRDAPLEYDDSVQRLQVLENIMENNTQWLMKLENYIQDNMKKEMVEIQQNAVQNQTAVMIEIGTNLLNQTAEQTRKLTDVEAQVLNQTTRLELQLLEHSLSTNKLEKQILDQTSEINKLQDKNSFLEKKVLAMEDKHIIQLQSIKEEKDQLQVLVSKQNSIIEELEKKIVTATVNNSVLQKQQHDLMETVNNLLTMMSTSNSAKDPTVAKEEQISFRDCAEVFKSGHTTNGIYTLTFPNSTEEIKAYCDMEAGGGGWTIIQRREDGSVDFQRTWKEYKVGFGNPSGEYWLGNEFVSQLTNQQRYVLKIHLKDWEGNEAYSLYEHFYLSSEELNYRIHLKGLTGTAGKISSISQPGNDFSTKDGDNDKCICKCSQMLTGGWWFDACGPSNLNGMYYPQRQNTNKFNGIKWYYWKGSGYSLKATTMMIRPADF

[2] = target: T2, VEGF-121 (VEGFA isoform 121) (Homo sapiens) (UniProt P15692); test: flow; details: 2'-F all nucleotides
T2 sequence: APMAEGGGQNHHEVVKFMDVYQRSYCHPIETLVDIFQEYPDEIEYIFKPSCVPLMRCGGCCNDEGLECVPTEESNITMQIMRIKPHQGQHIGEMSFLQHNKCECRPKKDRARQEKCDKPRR

[3] = test system: T3, VEGF (isoform not given) (Homo sapiens), P15692-9; test: competition; details: 2'-F all positions; blocks VEGF-VEGFR2; isoform not stated
T3 sequence: T2 sequence

[4] = 1 hexaethylene glycol linker between aptamers [2'-F at all nucleotides 1-86, 1 hexaethylene glycol linker (H) between 38 and 39 left out]
[5] = 2 hexaethylene glycol linkers between aptamers [2'-F at all nucleotides 1-86, 2 hexaethylene glycol linkers (HH) between 38 and 39 left out]
[6] = 3 hexaethylene glycol linkers between aptamers [2'-F at all nucleotides 1-86, 3 hexaethylene glycol linkers (HHH) between 38 and 39 left out]
[7] = 4 hexaethylene glycol linkers between aptamers [2'-F at all nucleotides 1-86, 4 hexaethylene glycol linkers (HHHH) between 38 and 39 left out]
[8] = 5 hexaethylene glycol linkers between aptamers [2'-F at all nucleotides 1-86, 5 hexaethylene glycol linkers (HHHHH) between 38 and 39 left out]
[9] = 6 hexaethylene glycol linkers between aptamers [2'-F at all nucleotides 1-86, 6 hexaethylene glycol linkers (HHHHHH) between 38 and 39 left out]

“CGCAUAGAUAAGCCAACAAACAUUCUCUGUUAGUAUUUUCUGCG [AMS0525.8]” gave a Kd ([1]; one internal hexaethylene glycol linker (H) [2'-F at 1-44, hexaethylene glycol linker H (left out) between C21 and A22], PBSMCT, 37 C) of 0.085 nM.

In the case of “CGCAUAGAUAAGCCAACAAAUUCUCUGUUAGUAUUUUCUGCG [AMS0525.7]”, the Kd ([1]; one internal hexaethylene glycol linker (H) [2'-F at 1-42, hexaethylene glycol linker H (left out) between A20 and U21], PBSMCT, 37 C) is reported as 0.093 nM.

For “CGCUAGAUGGCUAACACUAUUGUGGAGAUGCACUAGCGCGCAUAGAUAAGCCAACAAACGUACAUUCUCUGUUAGUAUUUUCUGCG [AMSB103.1]”, the Kd [2, 4] was 0.041 nM and the Kd [1, 4] was 0.026 nM.

“CGCUAGAUGGCUAACACUAUUGUGGAGAUGCACUAGCGCGCAUAGAUAAGCCAACAAACGUACAUUCUCUGUUAGUAUUUUCUGCG [AMSB103.2]” showed a Kd [2, 5] of 0.038 nM and a Kd [1, 5] of 0.034 nM.

In the case of “CGCUAGAUGGCUAACACUAUUGUGGAGAUGCACUAGCGCGCAUAGAUAAGCCAACAAACGUACAUUCUCUGUUAGUAUUUUCUGCG [AMSB103.3]”, the Kd [2, 6] is reported as 0.036 nM and the Kd [1, 6] is reported as 0.031 nM.

“CGCUAGAUGGCUAACACUAUUGUGGAGAUGCACUAGCGCGCAUAGAUAAGCCAACAAACGUACAUUCUCUGUUAGUAUUUUCUGCG [AMSB103.4]” showed a Kd [2, 7] of 0.041 nM and a Kd [1, 7] of 0.032 nM.

“CGCUAGAUGGCUAACACUAUUGUGGAGAUGCACUAGCGCGCAUAGAUAAGCCAACAAACGUACAUUCUCUGUUAGUAUUUUCUGCG [AMSB103.5]” was tested, and the Kd [2, 8] was 0.038 nM and the Kd [1, 8] was 0.027 nM.

For “CGCUAGAUGGCUAACACUAUUGUGGAGAUGCACUAGCGCGCAUAGAUAAGCCAACAAACGUACAUUCUCUGUUAGUAUUUUCUGCG [AMSB103.6]”, the Kd [2, 9] was 0.039 nM and the Kd [1, 9] was 0.034 nM.

For “CGCUAGAUGGCUAACACUAUUGUGGAGAUGCACUAGCGCGCAUAGAUAAGCCAACAAACGUACAUUCUCUGUUAGUAUUUUCUGCG [AMSB103]”, the IC50 [3] was < 0.1 nM.
